Assay results as given in patent US20230250190A1 (published 2023).

T1: T4 (Tn-MUC1) (PAPGSTAPPAHGVT(α-GalNAc)SAPDTRPAPG-OH)
T1 peptide: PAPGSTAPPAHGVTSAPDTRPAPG

T2: T9 (Tn-MUC1) (PAPGSTAPPAHGVT(α-GalNAc)S(α-GalNAc)APDTRPAPG-OH)
T2 peptide: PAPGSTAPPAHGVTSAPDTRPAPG

T3: T11 (Tn-MUC1) (PAPGSTAPPAHGVT(α-GalNAc)SAPDT(α-GalNAc)RPAPG-OH)
T3 peptide: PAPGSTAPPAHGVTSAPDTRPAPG

T4: T8 (Tn-MUC1) (PAPGST(α-GalNAc)APPAHGVTSAPDT(α-GalNAc)RPAPG-OH)
T4 peptide: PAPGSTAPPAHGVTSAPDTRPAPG

T5: S11 (sTn-MUC1) (PAPGSTAPPAHGVT(Neu5Ac-α(2-6)-GalNAc)SAPDT(Neu5Ac-a(2-6)-GalNAc)RPAPG-OH)
T5 peptide: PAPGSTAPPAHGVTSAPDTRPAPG

T6: S9 (sTn-MUC1) (PAPGSTAPPAHGVT(Neu5Ac-α(2-6)-GalNAc)S(Neu5Ac-a(2-6)-GalNAc)APDTRPAPG-OH)
T6 peptide: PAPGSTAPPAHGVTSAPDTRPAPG

T7: S4 (sTn-MUC1) (PAPGSTAPPAHGVT(Neu5Ac-α(2-6)-GalNAc)SAPDTRPAPG-OH)
T7 peptide: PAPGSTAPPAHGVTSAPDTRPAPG

T8: T3 (Tn-MUC1) (PAPGST(α-GalNAc)APPAHGVTSAPDTRPAPG-OH)
T8 peptide: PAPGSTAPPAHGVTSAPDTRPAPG


Columns and labels:
Experiment in all cases: glycopeptide array
T4 (Tn-MUC1) = molecular target: T1, T4 (Tn-MUC1)
T9 (Tn-MUC1) = molecular target: T2, T9 (Tn-MUC1)
T11 (Tn-MUC1) = molecular target: T3, T11 (Tn-MUC1)
T8 (Tn-MUC1) = molecular target: T4, T8 (Tn-MUC1)
S11 (sTn-MUC1) = molecular target: T5, S11 (sTn-MUC1)
S9 (sTn-MUC1) = molecular target: T6, S9 (sTn-MUC1)
S4 (sTn-MUC1) = molecular target: T7, S4 (sTn-MUC1)
T3 (Tn-MUC1) = molecular target: T8, T3 (Tn-MUC1)

Binder | EC50 (T4 (Tn-MUC1)) | EC50 (T9 (Tn-MUC1)) | EC50 (T11 (Tn-MUC1)) | EC50 (T8 (Tn-MUC1)) | EC50 (S11 (sTn-MUC1)) | EC50 (S9 (sTn-MUC1)) | EC50 (S4 (sTn-MUC1)) | EC50 (T3 (Tn-MUC1))
SEQ ID NO 178 (bivalent monospecific MUC1 IgG) (antibody, V domains shown) VH: QVQLVQSGAEVKKPGASVKVSCKASGYTFNRHYIQWVRQAPGQGLEWMGTINPYDGSTFYAQKFQDRVTMTRDTSTSTVYMDLNSLKSEDTAVYYCARDYMRGHVLFDYWGQGTLVTVSS VL: not shown | 0.103 µg/mL | 0.09 µg/mL | 0.108 µg/mL | 0.095 µg/mL | 0.335 µg/mL | 0.108 µg/mL | 0.098 µg/mL | –
86 (antibody, V domains shown) VH: QVQLVQSGAEVKKPGASVKVSCKASGYPFINYYIQWVRQAPGQGLEWMGVINPFDGSTNYAQKFQGRVTVTRDTSTSTVFMDLSSLRSEDTAVYYCARDNMIGYVLFDYWGQGTLVTVSS | 0.057 µg/mL | 0.05 µg/mL | 0.068 µg/mL | 0.061 µg/mL | 13.1 µg/mL | 0.105 µg/mL | 0.074 µg/mL | –
SEQ ID NO 29 (bivalent monospecific MUC1 IgG) (antibody, V domains shown) VH: QVQLVQSGAEVKKPGASVKVSCKASGYSFIHYYIHWVRQAPGQGLEWMGVINPFDGSTNYAQKFQDRVTVTRDTSTSTVFMDLSSLRSEDTAVYYCARDNMIGYVLFDDWGQGTLVTVSS VL: not shown | 0.104 µg/mL | 0.118 µg/mL | 0.126 µg/mL | 0.121 µg/mL | 6.96 µg/mL | 0.22 µg/mL | 0.118 µg/mL | –
82 (antibody, V domains shown) VH: QVQLVQSGAEVKKPGASVKVSCKASGYTFTSYYIHWVRQAPGQGLEWMGVINPYDSSTNYAQKFQGRVTMTRDTSTSTVFMDLSSLRSEDTAVYYCARDNMIGYVLFDYWGQGTLVTVSS | 0.145 µg/mL | 0.167 µg/mL | 0.227 µg/mL | 0.196 µg/mL | 58.6 µg/mL | 0.83 µg/mL | 0.173 µg/mL | –
90 (antibody, V domains shown) VH: QVQLVQSGAEVKKPGASVKVSCKASGYTFINHYIHWVRQAPGQGLEWMGVINPFDGSTNYAQKFQGRVTVTRDTSTSTVFLDLSSLRSEDTAVYYCARDNMIGYVLFDYWGQGTLVTVSS | 0.118 µg/mL | 0.102 µg/mL | 0.126 µg/mL | 0.12 µg/mL | 67.4 µg/mL | 0.207 µg/mL | 0.126 µg/mL | –
25 (antibody, V domains shown) VH: QVQLVESGAEVKKPGASVKVSCKASGYTFARYYVHWVRQAPGQGLEWMGLINPYGGATNYAQNFQGRVTMTRDTSTSTVYMELSSLRSEDTAVYYCARDAMGGDSYFDYWGQGTLVTVSS | 0.1 µg/mL | 0.119 µg/mL | 0.129 µg/mL | 0.113 µg/mL | – | – | – | 38.6 µg/mL
13 (antibody, V domains shown) VH: QVQLVQSGAEVKKPGASLKVSCKASGYTFTNYYIQWVRQAPGQGLEWMGVINPYDGSTNYAQKFQGRVTLTRDTSTTTVYMELSSLRSDDTAVYYCARDYMIGYVVFDYWGQGTLVTVSS | 0.153 µg/mL | 0.134 µg/mL | 0.158 µg/mL | 0.145 µg/mL | – | 0.279 µg/mL | 0.156 µg/mL | –
SEQ ID NO 57 (bivalent monospecific MUC1 IgG) (antibody, V domains shown) VH: QVQLVESGTEVKKPGASVKVSCKASGYSFIHYYIHWVRQAPGRGLEWMGVINPFDGSTNYAQNFQGRVTVTRDTSTSTVFMDLSSLRSEDTAVYYCARDNMIGYVLFDHWGQGTLVTVSS VL: not shown | 0.112 µg/mL | 0.109 µg/mL | 0.123 µg/mL | 0.114 µg/mL | 0.939 µg/mL | 0.16 µg/mL | 0.119 µg/mL | –
33 (antibody, V domains shown) VH: QVQLVQSGAEVKKPGASVRVSCKASGYPFINYYIQWVRQAPGQGLEWMGVINPFDGSTNYAQKFQDRVTVTRDTSTSTVFMDLSSLRSEDTAVYYCARDNMIGYVLLDYWGQGTLVTVSS | 0.076 µg/mL | 0.071 µg/mL | 0.088 µg/mL | 0.079 µg/mL | – | – | – | –
SEQ ID NO 5 (bivalent monospecific MUC1 IgG) (antibody, V domains shown) VH: QVQLVQSGAEVKKPGASVKVSCKTSGYTFTRYYIQWVRQAPGQGLEWMGVINPYDGSTNYAQKFQGRVTVTRDTSTFTVYMELSSLRSEDTAVYYCARDYMRGYVIFDYWGQGTLVTVSS VL: not shown | 0.116 µg/mL | 0.113 µg/mL | 0.127 µg/mL | 0.123 µg/mL | 0.296 µg/mL | 0.137 µg/mL | 0.12 µg/mL | –
102 (antibody, V domains shown) VH: QVQLVQSGAEVKKSGASVKVSCKASGYPFISYYIHWLRQAPGQGLTWMGVINPFDGSTDYAQKFQGRVTVTRDTSTSTVYMDLSSLRADDTAIYYCARDYMRGYVVFDYWGQGTLVTVSS | 0.087 µg/mL | 0.102 µg/mL | 0.111 µg/mL | 0.101 µg/mL | – | – | – | –
37 (antibody, V domains shown) VH: QVQLVQSGAEVKKPGASVTVSCKTSGYTFTSYYIHWLRQAPGQGLEWMGVINPFGGATNYAQKFQGRVTMTRDTSTITVYMELSSLRSEDTAVYYCARDAMGGDSHFDHWGRGTLVTVSS | 0.157 µg/mL | 0.13 µg/mL | 0.158 µg/mL | 0.144 µg/mL | – | – | – | –
150 (antibody, V domains shown) VH: QVQLVQSGAEVKTPGASVKVSCKASGYTFTNYYIQWVRQAPGQALEWMGVINPYDGSTHYAQKFQGRVTLTRDTSTTTVYMDLSSLRSEDAAVYYCARDYMLGYVVFDYWGQGTLVTVSS | 0.126 µg/mL | 0.098 µg/mL | 0.157 µg/mL | 0.135 µg/mL | – | – | – | –
198 (antibody, V domains shown) VH: QVQLVQSGAEVKKPGASVKVSCKASGYTFINNYIQWVRQAPGQGLEWMGVINPYDGSIHYAQKFQGRVTLTRDTSTTTVYMELSSLRSEDTAVYYCARDYMIGYVVFEYWGQGTLVTVSS | 0.111 µg/mL | 0.121 µg/mL | 0.137 µg/mL | 0.121 µg/mL | – | – | – | –
206 (antibody, V domains shown) VH: QVQLVQSGAEVKKPGASVRVSCKASGYPFINYYIQWVRQAPGQGLEWMGVINPFDGSTNYAQKFQGRVTVTRDTSTSTVFMDLNSLRSEDTAVYYCARDSMIGYVLFDFWGQGTLVTVSS | 0.068 µg/mL | 0.066 µg/mL | 0.088 µg/mL | 0.084 µg/mL | – | – | – | –
194 (antibody, V domains shown) VH: QVQLVQSGAEVKKPGTSVKVSCTASGYTFTNYYIQWVRQAPGQGLEWLGVINPYDGSTDYAQKFQGRVTLTRDTSTTTVYMELSSLRSEDTAVYYCARDYMLGYVVFDFWGQGTLVTVSS | 0.1 µg/mL | 0.082 µg/mL | 0.109 µg/mL | 0.099 µg/mL | – | – | – | –
162 (antibody, V domains shown) VH: QVQLVQSGAEVKKPGASVMLSCKASGYIFTSYYIQWVRQAPGQGLEWMGVVNPYDGSTNYAQKFQGRVTITRDTSTSTVFMELSSLRSEDTAVYYCARDNMLGHVIFDFWGQGTLVTVSS | 0.037 µg/mL | 0.037 µg/mL | 0.063 µg/mL | 0.043 µg/mL | – | – | – | –
146 (antibody, V domains shown) VH: QVQLVQSGAEVKKPGASVKVSCKASGYAFTSYYIHWVRQAPGQGLEWMGVINPYGGSTNYAQKFQGRVTMTRDTSTRIVYMDLSSLRSEDTAVYYCARDAMEGDSYFDYWGQGTLVTVSS | 0.081 µg/mL | 0.086 µg/mL | 0.116 µg/mL | 0.104 µg/mL | – | – | – | –
74 (antibody, V domains shown) VH: QVQLVQSGAEVKKPGASVQVSCKASGYTFINYYLQWVRQAPGQGLEWMGTINPFDGSTHYEQNFQGRVTMTRDTSTNTVYMELNGLRSEDTAVYYCARDHMIGYILFDYWGQGTTVTVSS | 0.111 µg/mL | 0.096 µg/mL | 0.137 µg/mL | 0.118 µg/mL | – | – | – | –
106 (antibody, V domains shown) VH: QVQLVQSGAEMKKPGASVKISCKASGYTFTNYYIQWVRQAPGQGLEWMGVINPYDGSTNYAQRFQGRVTLTRDTSTTTVYMELSSLRSEDTAVYYCARDYMIGYVVFDFWGQGTLVTVSS | 0.037 µg/mL | 0.032 µg/mL | 0.043 µg/mL | 0.036 µg/mL | – | – | – | 99.3 µg/mL
170 (antibody, V domains shown) VH: QVQLVQSGAEVKKPGASVQVSCKASGYTFINYYLQWVRQAPGQGLEWMGTINPFDGSTHYAQKFQGRVTMTRDTSTNTVYMELNSLRSEDTAVYYCARDRMIGYVLFDYWGQGTLVTVSS | 0.116 µg/mL | 0.127 µg/mL | 0.141 µg/mL | 0.123 µg/mL | – | – | – | –
174 (antibody, V domains shown) VH: EVQLVESGAEVKKPGASVKVSCKASGYTFNRYYLHWVRQAPGQGLEWMGVINPYDGSTNYAQKFRGRITMTRDTSTNTVYMELSSLRSEDTAVYFCARDAMEGDSYFDKWGQGTLVTVSS | 0.178 µg/mL | 0.144 µg/mL | 0.192 µg/mL | 0.174 µg/mL | – | – | – | –
